# Assay results: the Immune Epitope Database (IEDB)
# How the values were obtained:
# HLA-A*30:01 = assay: IEDB peptide-MHC binding, purified MHC/competitive/radioactivity; filed as Kd, often an IC50 or EC50 that approximates it; ≥ and ≤ were set here for values at or beyond the usual limits of such assays
# HLA-A*02:01 = assay: IEDB peptide-MHC binding, purified MHC/competitive/fluorescence; ≥ and ≤ were set here for values at or beyond the usual limits of such assays
# HLA-A*23:01 = assay: IEDB peptide-MHC binding, purified MHC/competitive/radioactivity; filed as Kd, often an IC50 or EC50 that approximates it; ≥ and ≤ were set here for values at or beyond the usual limits of such assays
# HLA-A*24:02 = assay: as above
# HLA-A*01:01 = assay: as above
# HLA-A*26:01 = assay: as above
# HLA-A*29:02 = assay: as above
# HLA-A*30:02 = assay: as above
# HLA-A*68:01 = assay: as above; conditions: source organism: Dengue virus 2 Jamaica/1409/1983
# [1] = source organism: Vaccinia virus WR
# [2] = source organism: Dengue virus 2 Jamaica/1409/1983
# [3] = source organism: Zaire ebolavirus
# [4] = source organism: Dengue virus 3 Martinique/1243/1999
# [5] = source organism: SARS coronavirus Tor2
# [6] = source organism: Dengue virus 4 Philippines/H241/1956
# [7] = source organism: Lymphocytic choriomeningitis virus (strain Armstrong)
# [8] = source organism: Lassa virus Josiah
# [9] = source organism: Sudan ebolavirus
# [10] = source organism: Mammarenavirus brazilense
# [11] = source organism: Dengue virus 3 Singapore/8120/1995
# [12] = source organism: Mammarenavirus guanaritoense
sequence,measurement,setting,value
AAMISLAKK,Kd,HLA-A*30:01; [1],151 nM
AGKRSLRPQP,Kd,HLA-A*30:01; [2],1900 nM
AIVNAQPKC,IC50,HLA-A*02:01; [3],≥ 73800 nM
ALTLATGPIS,Kd,HLA-A*30:01; [2],220 nM
ATWAENIQV,IC50,HLA-A*02:01; source organism: West Nile virus NY-99,780 nM
AWMVHRQWF,Kd,HLA-A*23:01; [4],340 nM
same,Kd,HLA-A*24:02; [4],42.9 nM
DEEGNLLDSY,Kd,HLA-A*01:01; [5],≥ 92600 nM
same,Kd,HLA-A*23:01; [5],≥ 58100 nM
same,Kd,HLA-A*24:02; [5],≥ 70300 nM
same,Kd,HLA-A*26:01; [5],≥ 71600 nM
same,Kd,HLA-A*29:02; [5],7260 nM
same,Kd,HLA-A*30:02; [5],8980 nM
DSKEGFFTY,Kd,HLA-A*01:01; [5],200 nM
same,Kd,HLA-A*23:01; [5],≥ 77800 nM
same,Kd,HLA-A*24:02; [5],≥ 77600 nM
same,Kd,HLA-A*26:01; [5],993 nM
same,Kd,HLA-A*29:02; [5],663 nM
same,Kd,HLA-A*30:02; [5],237 nM
DYAEISFML,Kd,HLA-A*01:01; [5],≥ 22500 nM
same,Kd,HLA-A*23:01; [5],≥ 90700 nM
same,Kd,HLA-A*24:02; [5],≥ 105000 nM
same,Kd,HLA-A*26:01; [5],≥ 68900 nM
same,Kd,HLA-A*29:02; [5],100 nM
same,Kd,HLA-A*30:02; [5],440 nM
EHSWNADLY,Kd,HLA-A*01:01; [5],≥ 69400 nM
same,Kd,HLA-A*23:01; [5],≥ 77800 nM
same,Kd,HLA-A*24:02; [5],≥ 77600 nM
same,Kd,HLA-A*26:01; [5],4410 nM
same,Kd,HLA-A*29:02; [5],295 nM
same,Kd,HLA-A*30:02; [5],45.1 nM
EQGLIQYPT,IC50,HLA-A*02:01; [3],60500 nM
ERNRVSTPQG,Kd,HLA-A*30:01; [6],121 nM
ESWILRNPGF,Kd,HLA-A*26:01; [6],9730 nM
same,Kd,HLA-A*30:01; [6],427 nM
ETAECPNTNR,Kd,HLA-A*26:01; [2],10500 nM
same,Kd,HLA-A*68:01,13.9 nM
EWSVATFYLF,Kd,HLA-A*01:01; [5],1160 nM
same,Kd,HLA-A*23:01; [5],0.0328 nM
same,Kd,HLA-A*24:02; [5],27.2 nM
same,Kd,HLA-A*29:02; [5],17.4 nM
same,Kd,HLA-A*30:02; [5],1730 nM
EYHLLYQKT,Kd,HLA-A*26:01; [7],≥ 77900 nM
same,Kd,HLA-A*30:02; [7],≥ 35000 nM
FARLLNLSG,IC50,HLA-A*02:01; [3],48200 nM
FFQEVPHVI,Kd,HLA-A*23:01; [8],239 nM
same,Kd,HLA-A*24:02; [8],713 nM
same,Kd,HLA-A*29:02; [8],508 nM
FKIDNNTFV,IC50,HLA-A*02:01; [9],40800 nM
FSGLLIVKT,IC50,HLA-A*02:01; [3],≥ 370000 nM
FYFTNDVSF,Kd,HLA-A*01:01; [5],17100 nM
same,Kd,HLA-A*23:01; [5],1490 nM
same,Kd,HLA-A*24:02; [5],2800 nM
same,Kd,HLA-A*26:01; [5],≥ 22300 nM
same,Kd,HLA-A*29:02; [5],413 nM
same,Kd,HLA-A*30:02; [5],≥ 96800 nM
GFELTSMKY,Kd,HLA-A*01:01; [5],1750 nM
same,Kd,HLA-A*23:01; [5],≥ 77800 nM
same,Kd,HLA-A*24:02; [5],≥ 77600 nM
same,Kd,HLA-A*26:01; [5],≥ 81500 nM
same,Kd,HLA-A*29:02; [5],132 nM
same,Kd,HLA-A*30:02; [5],1840 nM
GLDDQEKKI,IC50,HLA-A*02:01; [3],41200 nM
GLITNTIAG,IC50,HLA-A*02:01; [3],4100 nM
GLNLEGNGV,IC50,HLA-A*02:01; [3],10800 nM
GLRQLANET,IC50,HLA-A*02:01; [9],34200 nM
GSDDIRRLV,Kd,HLA-A*01:01; [10],≥ 44500 nM
same,Kd,HLA-A*23:01; [10],≥ 77700 nM
same,Kd,HLA-A*24:02; [10],≥ 77500 nM
same,Kd,HLA-A*26:01; [10],≥ 77900 nM
same,Kd,HLA-A*29:02; [10],≥ 78900 nM
same,Kd,HLA-A*30:02; [10],≥ 76900 nM
GTKIALLEL,Kd,HLA-A*30:01; [1],1.34 nM
HHANEYRQY,Kd,HLA-A*01:01; [5],≥ 78100 nM
same,Kd,HLA-A*23:01; [5],≥ 77800 nM
same,Kd,HLA-A*24:02; [5],≥ 33400 nM
same,Kd,HLA-A*26:01; [5],≥ 102000 nM
same,Kd,HLA-A*29:02; [5],12700 nM
same,Kd,HLA-A*30:02; [5],6960 nM
HMVVKSALL,Kd,HLA-A*01:01; [5],15100 nM
same,Kd,HLA-A*23:01; [5],13900 nM
same,Kd,HLA-A*24:02; [5],12200 nM
same,Kd,HLA-A*26:01; [5],13100 nM
same,Kd,HLA-A*29:02; [5],511 nM
same,Kd,HLA-A*30:02; [5],954 nM
HSLISNLLV,Kd,HLA-A*30:01; source organism: Vaccinia virus Copenhagen,558 nM
HSYGIDLKSY,Kd,HLA-A*01:01; [5],80.6 nM
same,Kd,HLA-A*23:01; [5],≥ 70000 nM
same,Kd,HLA-A*24:02; [5],≥ 56400 nM
same,Kd,HLA-A*26:01; [5],451 nM
same,Kd,HLA-A*29:02; [5],29.2 nM
same,Kd,HLA-A*30:02; [5],7.12 nM
HVKIPTHLT,Kd,HLA-A*30:01; [1],224 nM
ICLSGDGWPY,Kd,HLA-A*01:01; [8],6320 nM
same,Kd,HLA-A*23:01; [8],≥ 70000 nM
same,Kd,HLA-A*24:02; [8],≥ 70300 nM
same,Kd,HLA-A*26:01; [8],≥ 69700 nM
same,Kd,HLA-A*29:02; [8],371 nM
same,Kd,HLA-A*30:02; [8],678 nM
IDQIIHDFV,IC50,HLA-A*02:01; [3],≥ 195000 nM
IFFASFYYIW,Kd,HLA-A*01:01; [5],1270 nM
same,Kd,HLA-A*23:01; [5],0.529 nM
same,Kd,HLA-A*24:02; [5],24.3 nM
same,Kd,HLA-A*26:01; [5],1370 nM
same,Kd,HLA-A*29:02; [5],31.6 nM
same,Kd,HLA-A*30:02; [5],12100 nM
IFITDNVHTW,Kd,HLA-A*23:01; [2],36.7 nM
ILPEEQDQNY,Kd,HLA-A*01:01; [11],≥ 38700 nM
same,Kd,HLA-A*30:02; [11],≥ 37200 nM
ILSDDAVVCY,Kd,HLA-A*01:01; [5],10.2 nM
same,Kd,HLA-A*23:01; [5],≥ 70000 nM
same,Kd,HLA-A*24:02; [5],≥ 70300 nM
same,Kd,HLA-A*26:01; [5],≥ 38800 nM
same,Kd,HLA-A*29:02; [5],320 nM
same,Kd,HLA-A*30:02; [5],2100 nM
INYCLDFLF,Kd,HLA-A*23:01; [12],56.5 nM
same,Kd,HLA-A*24:02; [12],1270 nM
same,Kd,HLA-A*29:02; [12],125 nM
KISISSLCK,Kd,HLA-A*30:01; [1],88.1 nM
